Data set [1] addresses HBV wild type core protein expressed in Huh7 cells (subtype ayw) (Hepatitis B virus, subtype ayw) (UniProt P03146). Nature of the data set: cell-based or functional assay.
In data set [2] the target is HBV Cp149-WT (wild type HBV core protein assembly domain, N-terminal first 149 residues), dimer (Hepatitis B virus, adyw strain). Nature of the data set: SEC of assembly reactions, 100 mM NaCl, 23° C.
Data set [3] shares this target. The experiment in a line: SEC of capsid and dimer after 72 h assembly at 100 mM NaCl, 23° C.; self-association of Cp149 dimers.
Data set [4] shares this target. The experiment in a line: SEC of capsid and dimer after 72 h assembly at 100 mM NaCl, 23° C.; mean equilibrium dimer concentration.
Data set [5] concerns the molecule itself. Nature of the data set: thermodynamic calculation from SEC, 23° C., 100 mM NaCl; 100 mM NaCl, 23° C.; value in the text, which differs from Table 3.
Data set [6] deals with the molecule itself. The experiment in a line: SEC of assembly reactions, 100 mM NaCl, 72 h, 23° C.; 100 mM NaCl, 72 h, 23° C.; ratio of WT to V124W pseudo-critical concentration.
Data set [7] concerns the molecule itself. The experiment in a line: SEC of capsid and dimer after 72 h assembly at 100 mM NaCl, 23° C.; self-association of Cp149-V124W dimers; 100 mM NaCl, 23° C., SEC after 72 h equilibration; Table 3 value.

For the molecule “HBV V124W core protein expressed in Huh7 cells (subtype ayw) (from UniProt P03146 1-183)”, in data set [1], the dlDNA yield, Southern blot of encapsidated DNA, WT:V124W = 1:1 co-transfection in Huh7 cells was 23 % of WT; the rcDNA yield, Southern blot of encapsidated DNA, WT:V124W = 1:1 co-transfection in Huh7 cells was 8 % of WT; the ssDNA yield, Southern blot of encapsidated DNA, WT:V124W = 1:1 co-transfection in Huh7 cells was 37 % of WT; the total DNA yield, Southern blot of encapsidated DNA, WT:V124W = 1:1 co-transfection in Huh7 cells is 31 % of WT.
Molecule “HBV Cp149-WT (wild type HBV core protein assembly domain, N-terminal first 149 residues), dimer” displayed a pseudo-critical concentration in data set [2] of 43.6 µM. In addition, the ΔGcontact in data set [3] is -2.74 kcal/mol. The KD, apparent in data set [4] was 43.3 µM.

B1: HBV Cp149-V124W (core protein assembly domain with V124W), dimer (other)
chain: MDIDPYKEFGATVELLSFLPSDFFPSVRDLLDTAAALYRDALESPEHCSPHHTALRQAILCWGDLMTLATWVGTNLEDPASRDLVVSYVNTNVGLKFRQLLWFHISCLTFGRETVLEYLVSFGWWIRTPPAYRPPNAPILSTLPETTVV
notes: also called HBV Cpdominant 1; Cpdominant 1
Regarding B1, in data set [5], the ΔGcont is -3.73 kcal/mol. Also, the “fold difference of pseudo-critical concentration against WT” value in data set [6] amounted to 40 fold. The molecule further registered a ΔGcontact in data set [7] of -3.84 kcal/mol.

The values are drawn from patent US20140148381A1 (INDIANA UNIVERSITY RESEARCH AND TECHNOLOGY, published 2014).
